These results are taken from patent US20210380703A1.

The labels stand for the following.
B1: 369_A03 (antibody, V domains shown)
VH: EVQLLESGGGLVQPGGSLRLSCAASGFTFSSYGMNWVRQAPGKGLEWVSNINYNGGYTGYADSVKGRFTISRDNSKNTLYLQMNSLRAEDTAVYYCARSANWHDTALDYWGQGTLVTVSS
VL: DIQMTQSPSSLSASVGDRVTITCRASQSILTYLNWYQQKPGKAPKLLIYAVTSRHSGVPSRFSGSGSGTDFTLTISSLQPEDFATYYCQQGYDLPLTFGGGTKVEIK
B2: 369_A10 (antibody, V domains shown)
VH: B1 VH with S30D, G33S, S49A, N50G, G55S, N101T, A106H
VL: B1 VL with T31S, V51A, H55A, G91S, D93E
B3: 374_E09 (antibody, V domains shown)
VH: B1 VH with S31D, G33S, N50G, T58K, N101T, A106H
VL: B1 VL with L30V, L47V, V51A, H55A, G91S, L94S
B4: 365_B09 (antibody, V domains shown)
VH: B1 VH with S30D, G33S, S49A, N50G, G55S, T58K, G59S, N101T, A106H
VL: B1 VL with T31R, V51A, R54L, G91S, L94N
B5: 368_H01 (antibody, V domains shown)
VH: B1 VH with G33S, S49A, N50G, G55S, T58K, G59S, N101T, A106H
VL: B1 VL with T31S, V51T, R54L, H55A, G91S, L94N
B6: 376_C11 (antibody, V domains shown)
VH: B1 VH with S30D, G33S, S49A, N50G, G55S, T58K, G59S, N101T, A106H
VL: B1 VL with L47V, V51A, H55A, G91S, L94N
B7: 370_A06 (antibody, V domains shown)
VH: B1 VH with G33S, S49A, N50S, G55S, T58K, G59S, N101T, A106H
VL: B1 VL with L30V, L47V, V51A, R54L, H55A, G91S
B8: 375_B04 (antibody, V domains shown)
VH: B1 VH with S30D, G33S, S49A, N101T, A106H
VL: B1 VL with V51A, H55A, G91S, L94N
B9: 368_G09 (antibody, V domains shown)
VH: B1 VH with S30D, N35H, S49A, G59S, N101T, A106H
VL: B1 VL with L30V, T31S, L47V, V51A, H55A, G91S, L94T
B10: 371_F05 (antibody, V domains shown)
VH: B1 VH with G33S, S49A, N50G, G55S, T58K, G59S, N101T, A106H
VL: B1 VL with T31S, V51A, G91S, D93E, L94N
B11: 373_F03 (antibody, V domains shown)
VH: B1 VH with S30D, G33S, S49A, G55S, N101T, A106H
VL: B1 VL with L33V, V51A, G91S, L94S
B12: 373_B08 (antibody, V domains shown)
VH: B1 VH with S30D, G33S, S49A, G55S, T58K, N101T, A106H
VL: B1 VL with L47V, V51A, R54L, H55A, G91S, D93E, L94N
B13: 368_E11 (antibody, V domains shown)
VH: B1 VH with S30D, N35H, S49A, G59S, N101T, A106H
VL: B1 VL with L30I, T31S, L33V, V51A, G91S, D93E
B14: 373_B11 (antibody, V domains shown)
VH: B1 VH with G33S, S49A, G55S, T58K, N101T, A106H
VL: B1 VL with T31S, V51A, H55A, G91S, L94N
B15: 373_E06 (antibody, V domains shown)
VH: B1 VH with S30D, G33S, S49A, N50G, G55S, T58K, G59S, N101T, A106H
VL: B1 VL with T31R, V51A, R54L, G91S, L94N
B16: 370_C04 (antibody, V domains shown)
VH: B1 VH with S49A, N50S, G55S, G59S, N101T, A106H
VL: B1 VL with T31S, V51A, T52S, R54L, H55Q, G91S, D93E, L94N
B17: 375_C12 (antibody, V domains shown)
VH: B1 VH with G33S, S49A, N101T, A106H
VL: B1 VL with V51A, H55A, G91S
B18: 374_C02 (antibody, V domains shown)
VH: B1 VH with S30D, G33S, N50G, N101T, A106H
VL: B1 VL with T31S, V51A, G91S, L94S
B19: 374_D12 (antibody, V domains shown)
VH: B1 VH with S30D, G33S, N50G, N101T, A106H
VL: B1 VL with L30V, T31S, L33V, L47V, V51A, H55A, G91S
B20: 369_B12 (antibody, V domains shown)
VH: B1 VH with S30D, G33S, N50G, T58K, G59S, N101T, A106H
VL: B1 VL with L33V, V51T, R54L, H55A, G91S, L94S
B21: 367_F02 (antibody, V domains shown)
VH: B1 VH with S30D, G33S, S49A, G59S, N101T, A106H
VL: B1 VL with L30I, T31S, L33V, V51A, G91S, D93E, L94S
B22: 368_H12 (antibody, V domains shown)
VH: B1 VH with S30D, G33S, S49A, N50S, G55S, T58K, N101T, A106H
VL: B1 VL with L30V, V51A, H55A, G91S, D93E, L94S
B23: 374_C05 (antibody, V domains shown)
VH: B1 VH with S30D, G33S, S49A, N50G, G55S, T58K, G59S, N101T, A106H
VL: B1 VL with L30I, T31R, L47V, V51A, H55A, G91S, L94N
B24: 374_C11 (antibody, V domains shown)
VH: B1 VH with G33S, S49A, N50G, G55S, T58K, N101T, A106H
VL: B1 VL with V51A, H55A, G91S, D93E, L94S
B25: 374_C04 (antibody, V domains shown)
VH: B1 VH with G33S, S49A, N50G, G55S, T58K, G59S, N101T, A106H
VL: B1 VL with V51A, T52S, R54L, H55Q, G91S, D93E
B26: 366_D02 (antibody, V domains shown)
VH: B1 VH with G33S, S49A, N50S, G59S, N101T, A106H
VL: B1 VL with T31S, L33V, V51T, R54L, H55A, G91S
B27: 371_C09 (antibody, V domains shown)
VH: B1 VH with S30D, G33S, N50G, T58K, G59S, N101T, A106H
VL: B1 VL with L33V, V51A, T52S, R54L, H55Q, G91S, L94N
B28: 374_B09 (antibody, V domains shown)
VH: B1 VH with G33S, N50G, T58K, G59S, N101T, A106H
VL: B1 VL with L30V, T31R, L47V, V51A, R54L, H55A, G91S, D93E
B29: 373_B03 (antibody, V domains shown)
VH: B1 VH with G33S, S49A, N50G, G55S, T58K, G59S, N101T, A106H
VL: B1 VL with L47V, V51A, R54L, H55A, G91S, L94N
B30: 370_E07 (antibody, V domains shown)
VH: B1 VH with S30D, G33S, S49A, N101T, A106H
VL: B1 VL with V51A, H55A, G91S, L94N
B31: 369_B02 (antibody, V domains shown)
VH: B1 VH with S30D, G33S, N50G, T58K, G59S, N101T, A106H
VL: B1 VL with T31S, L47V, V51A, H55A, G91S, D93N
B32: 373_C09 (antibody, V domains shown)
VH: B1 VH with S30D, G33S, S49A, N50G, G55S, T58K, G59S, N101T, A106H
VL: B1 VL with L47V, V51A, H55A, G91S, D93E
B33: 375_G07 (antibody, V domains shown)
VH: B1 VH with S30D, G33S, S49A, N50G, G55S, G59S, N101T, A106H
VL: B1 VL with T31S, L47V, V51A, R54L, H55A, G91S
B34: 365_C09 (antibody, V domains shown)
VH: B1 VH with S31D, N50G, T58K, G59S, N101T, A106H
VL: B1 VL with L30V, T31S, L33V, V51A, H55A, G91S, L94T
B35: 365_F08 (antibody, V domains shown)
VH: B1 VH with S30D, S31D, S49A, G59S, N101T, A106H
VL: B1 VL with T31S, L33V, V51A, G91S, D93S
B36: 372_D04 (antibody, V domains shown)
VH: B1 VH with G33S, S49A, G55S, N101T, A106H
VL: B1 VL with V51A, R54L, G91S
B37: 369_F12 (antibody, V domains shown)
VH: B1 VH with G33S, S49A, N50S, G55S, T58K, G59S, N101T, A106H
VL: B1 VL with L30I, T31S, R54L, H55A, G91S, D93E, L94N
B38: 374_D02 (antibody, V domains shown)
VH: B1 VH with S30D, G33S, S49A, N50G, G55S, G59S, N101T, A106H
VL: B1 VL with L30S, L33V, R54L, H55A, G91S, L94S
B39: 368_F12 (antibody, V domains shown)
VH: B1 VH with S30D, S31D, G33S, S49A, N50S, G55S, T58K, G59S, N101T, A106H
VL: B1 VL with L30V, L47V, V51A, R54L, H55A, G91S
B40: 376_B06 (antibody, V domains shown)
VH: B1 VH with G33S, S49A, N50G, G55S, T58K, N101T, A106H
VL: B1 VL with V51A, H55A, G91S
B41: 365_A10 (antibody, V domains shown)
VH: B1 VH with N35H, S49A, N50G, G55S, G59S, N101T, A106H
VL: B1 VL with L47V, R54L, H55A, G91S, L94S
B42: 374_H08 (antibody, V domains shown)
VH: B1 VH with S30D, G33S, N50G, N101T, A106H
VL: B1 VL with T31S, V51A, R54L, G91S, D93E, L94N
B43: 367_G07 (antibody, V domains shown)
VH: B1 VH with S30D, G33S, S49A, N101T, A106H
VL: B1 VL with L33V, V51A, H55A, G91S, L94N
B44: 371_G03 (antibody, V domains shown)
VH: B1 VH with S49A, T58K, N101T, A106H
VL: B1 VL with L30V, L33V, L47V, V51A, R54L, H55A, G91S, D93N

Residue numbers refer to the chain shown, from its start.

Mouse ACVR2A (mouse), sequence (P27038 20-135 limits assumed): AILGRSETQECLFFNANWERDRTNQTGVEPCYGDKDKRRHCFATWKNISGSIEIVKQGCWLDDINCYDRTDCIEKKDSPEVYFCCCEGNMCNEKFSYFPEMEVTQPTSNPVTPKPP

The first assay addresses Human Fc (human). Nature of the assay: ELISA, negative control.
Take B1: the optical density amounted to 0.347 OD.

Another assay has as its target human Fc (human). The assay can be described thus: ELISA; negative control.
B2 registered an optical density of 0.348 OD. B3 registered an optical density of 0.162 OD. Still for that read-out and setting: for B4 the value was 0.272 OD. The same measure, in the same setting: under B5 stands 0.374 OD. The molecule B6 showed an optical density of 0.23 OD. For B7, the optical density came out at 0.331 OD. Still for that read-out and setting: under B8 stands 0.19 OD; under B9, 0.281 OD; under B10, 0.297 OD. The same measure, in the same setting: under B11 stands 0.179 OD. With B12, the optical density stood at 0.17 OD. The molecule B13 gave an optical density of 0.341 OD. B14 registered an optical density of 0.178 OD. The same measure, in the same setting: under B15 stands 0.187 OD; under B16, 0.334 OD; under B17, 0.197 OD. On the same count and under the same terms, under B18 stands 0.167 OD; under B19, 0.235 OD; under B20, 0.4 OD. The same measure, in the same setting: under B21 stands 0.315 OD; under B22, 0.381 OD; under B23, 0.175 OD.

For B24, the optical density was determined as 0.471 OD. Still for that read-out and setting: for B25 the value was 0.201 OD; for B26, 0.349 OD; for B27, 0.308 OD.

With B28, the optical density is 0.172 OD. The same measure, in the same setting: under B29 stands 0.18 OD; under B30, 0.379 OD; under B31, 0.456 OD. The same measure, in the same setting: under B32 stands 0.17 OD. Still for that read-out and setting: for B33 the value was 0.178 OD. On to B34, for which the optical density came to 0.266 OD. Still for that read-out and setting: under B35 stands 0.437 OD; under B36, 0.419 OD; under B37, 0.434 OD. The same measure, in the same setting: under B38 stands 0.204 OD.

B39 returned an optical density of 0.349 OD. On the same count and under the same terms, under B40 stands 0.222 OD; under B41, 0.293 OD. Same read-out and setting: under B42 stands 0.199 OD; under B43, 0.295 OD; under B44, 0.359 OD.

The next assay addresses Mouse ACVR2A (mouse) (UniProt P27038). The assay can be described thus: ELISA.
Molecule B1 showed an optical density of 0.561 OD.
